The values below come from patent publication US20040014072, “Novel dna synthase” (published 2004).

Series [1] concerns the target T1, p41-p46 complex (DNA primase/polymerase) (Pyrococcus furiosus, UniProt Q9P9H1;Q8U4H7 SEQ:1-347,SEQ:1-396).
T1 sequence 1: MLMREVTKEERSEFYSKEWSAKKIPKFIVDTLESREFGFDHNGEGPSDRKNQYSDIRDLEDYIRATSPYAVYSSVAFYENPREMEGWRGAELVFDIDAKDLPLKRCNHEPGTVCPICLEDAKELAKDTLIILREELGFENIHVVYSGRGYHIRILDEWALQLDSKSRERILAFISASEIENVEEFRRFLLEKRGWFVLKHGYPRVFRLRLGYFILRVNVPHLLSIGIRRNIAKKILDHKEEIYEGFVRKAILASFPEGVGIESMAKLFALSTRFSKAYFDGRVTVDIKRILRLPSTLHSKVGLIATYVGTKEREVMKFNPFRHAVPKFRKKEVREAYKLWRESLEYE
T1 sequence 2: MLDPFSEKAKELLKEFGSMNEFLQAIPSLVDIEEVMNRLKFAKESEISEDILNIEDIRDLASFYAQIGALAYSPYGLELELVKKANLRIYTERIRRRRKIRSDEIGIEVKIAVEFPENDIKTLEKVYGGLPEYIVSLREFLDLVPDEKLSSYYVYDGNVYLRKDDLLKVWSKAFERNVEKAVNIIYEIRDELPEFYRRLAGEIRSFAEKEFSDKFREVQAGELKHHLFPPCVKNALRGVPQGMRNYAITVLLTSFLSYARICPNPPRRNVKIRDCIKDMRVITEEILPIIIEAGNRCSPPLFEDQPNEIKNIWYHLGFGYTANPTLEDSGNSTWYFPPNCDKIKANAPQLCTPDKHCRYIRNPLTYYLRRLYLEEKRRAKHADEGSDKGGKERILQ
Briefly: EMSA; 50 mM Tris-Cl pH 8.0, 10 mM MgCl2, 20 mM KCl, 55 C. To be noted: tags: N-terminal His6 on p41, p46 untagged, label: 5'-32P. How it is done:
(§1) The gel-shift assey was used to detect binding activity that binds enzyme to DNA. 49 chain-length oligodeoxynuclotide, 5′-d[…] GCT-3′ was labeled with ³²P at 5′ terminal. Then the chain was used for gel-shift assey with itself or annealed with 49 or 17 chain length complementary oligodeoxynuclotide. With these three kinds of DNA, and the proteins were mixed in variety of concentrations in gel-shift assey buffer (50 mM Tris.Cl, pH8.0, 10 mM MgCl₂, 20 mM KCl, and 1 mM β-mercaptoethanol). The mixtures were left for 5 minutes under temperature of 55° C. and separated by electrophoreting with 1% agarose gel. The gel was processed by 0.1×TAE buffer (4 mM Tris-Acetate, pH8.0, 0.1 mM EDTA) and electrophoreted with same buffer. Autoradiography after the electrophoration was shown in FIG. 5. p41-p46 complex bound to all types of DNA and shifted the band as the complex.
For orientation: In EMSA bound probe runs differently from free probe, usually more slowly.

The target of another series is T2, p46 (Pyrococcus furiosus, UniProt Q8U4H7 SEQ:1-396).
T2 sequence: T1 sequence 2
Briefly: EMSA; no band shift for p46 alone, data not shown. To be noted: label: 5'-32P. How it is done:
as §1

The target of another series is T3, p41 (Pyrococcus furiosus, UniProt Q9P9H1 SEQ:1-347).
T3 sequence: T1 sequence 1
Put plainly: EMSA; no band shift for p41 alone, data not shown. Conditions: tags: N-terminal His6, label: 5'-32P. How it is done:
as §1

Take AGCTACCATGCCTGCACGAATTAAGCAATTCGTAATCATGGTCATAGCT (ssDNA) [49-mer oligodeoxynucleotide]: the figures for the binding result (in series [1]; with p46; with p41) were “binds”, “no binding” and “no binding”, respectively.

B1: 49-mer annealed to complementary 49-mer (dsDNA)
DNA 1: AGCTACCATGCCTGCACGAATTAAGCAATTCGTAATCATGGTCATAGCT
DNA 2: AGCTATGACCATGATTACGAATTGCTTAATTCGTGCAGGCATGGTAGCT
For B1, the binding result was “binds” in series [1] (full duplex), “no binding” with p46 (full duplex) and “no binding” with p41 (full duplex).
